Measured values published in patent US20220042018, “APTAMERS AND THE USE THEREOF IN THE TREATMENT OF CANCER” (FUNDACIÓn PARA LA INVESTIGACIÓn BIOMÉDICA …, published 2022).

Columns and labels:
MNK1a (MKNK1 isoform a) [1] = biological target: T1, MNK1a (MKNK1 isoform a) (UniProt Q9BUB5-2 Q9BUB5-2:1-424); experiment: ELONA; BSA-free aptamer buffer, 37 C; also detected in apta-western; settings: tags: GST fusion; label: biotin; G4 (parallel, five-tiered from 3- and 2-tier quadruplexes)
Experimental: (§1) To determine the binding of the aptamers to MNK1a or MNK1b, 200 ng of protein/well diluted in a coating solution (KPL, USA) in a final volume of 100 μL/well were added to a Maxisorp Nunc 96-well ELISA plate (ThermoFisher Scientific, USA). The plate was incubated overnight at 4° C. under stirring. Aptamers were then added at the corresponding concentration according to the assay, in a final volume of 100 μL/well of BSA-free aptamer buffer for 1 hour at 37° C. under stirring. All the aptamers used were labeled with biotin and had been previously denatured at 90° C. for 10 minutes and then kept at 4° C. for 10 minutes in the BSA-free aptamer buffer. To detect the binding of the aptamer to the protein, 100 μL/well of streptavidin-peroxidase (GE Healthcare, United Kingdom) diluted 1/1000 in the aptamer buffer at 37° C. for 1 hour under stirring were added. To develop the plate, 100 μL/well of ABTS solution (Roche, Switzerland) were added, and it was incubated in darkness at room temperature, with measurements being taken every 10 minutes at a wavelength of 405 nm in an Infinite F200 spectrophotometer (TECAN, Switzerland).
(§2) To analyze the affinity of the new aptamer apMNKQ2, ELONA assays were carried out with the four MNK1 constructs.

MNK1b (MKNK1 isoform b) [2] = biological target: T2, MNK1b (MKNK1 isoform b) (UniProt Q9BUB5-3 Q9BUB5-3:1-347); experiment: ELONA; BSA-free aptamer buffer, 37 C; four-fold higher affinity than MNK1a; preferentially recognised in native apta-western; settings: tags: GST fusion; label: biotin; G4 (parallel, five-tiered from 3- and 2-tier quadruplexes)
Experimental: as §1, §2

MNK1a (MKNK1 isoform a) [3] = biological target: T1, MNK1a (MKNK1 isoform a); experiment: recognised both isoforms in a similar manner; data not shown; settings: tags: GST fusion; label: biotin; G4 predicted
MNK1b (MKNK1 isoform b) [4] = biological target: T2, MNK1b (MKNK1 isoform b); experiment: as above; settings: tags: GST fusion; label: biotin; G4 predicted

T1 sequence (Q9BUB5 other isoform, or with tags, fused parts or gaps): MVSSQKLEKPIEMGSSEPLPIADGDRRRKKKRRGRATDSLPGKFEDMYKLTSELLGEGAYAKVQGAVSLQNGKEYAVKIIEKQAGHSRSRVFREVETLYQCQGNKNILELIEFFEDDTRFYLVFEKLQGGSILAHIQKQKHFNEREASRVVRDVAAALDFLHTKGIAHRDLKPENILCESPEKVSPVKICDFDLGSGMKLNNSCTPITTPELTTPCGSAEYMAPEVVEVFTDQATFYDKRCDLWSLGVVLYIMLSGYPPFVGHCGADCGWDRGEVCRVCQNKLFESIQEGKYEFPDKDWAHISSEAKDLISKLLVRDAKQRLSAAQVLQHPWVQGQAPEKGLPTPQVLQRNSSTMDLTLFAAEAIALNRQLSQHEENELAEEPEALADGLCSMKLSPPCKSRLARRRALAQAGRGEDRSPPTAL
T2 sequence (Q9BUB5 other isoform, or with tags, fused parts or gaps): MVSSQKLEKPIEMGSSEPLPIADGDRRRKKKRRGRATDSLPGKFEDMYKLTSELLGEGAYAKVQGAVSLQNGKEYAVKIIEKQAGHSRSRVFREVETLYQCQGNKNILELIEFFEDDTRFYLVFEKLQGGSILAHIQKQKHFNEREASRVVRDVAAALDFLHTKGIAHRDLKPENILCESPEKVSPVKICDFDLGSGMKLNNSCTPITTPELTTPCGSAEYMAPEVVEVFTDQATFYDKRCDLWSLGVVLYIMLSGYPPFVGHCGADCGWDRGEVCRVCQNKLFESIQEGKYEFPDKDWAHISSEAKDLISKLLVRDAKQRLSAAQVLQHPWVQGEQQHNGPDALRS

| Binder | Kd (MNK1a (MKNK1 isoform a) [1]) [nM] | Kd (MNK1b (MKNK1 isoform b) [2]) [nM] | binding result (MNK1a (MKNK1 isoform a) [3]) | binding result (MNK1b (MKNK1 isoform b) [4]) |
| --- | --- | --- | --- | --- |
| TGGGGTGGGCGGGCGGGGGTGGGGGTGGT (structured_DNA) [apMNKQ2] | 66.1 | 15.5 |  |  |
| TTTTTGGGGTGGGCGGGCGGGGGTGGGGGTGGTATGGCGCGTTGGCCC (structured_DNA) [apMNK2FT] |  |  | binds | binds |
